Measured values taken from US20110269680A1, “GLP-1 ANALOGS AND USES THEREOF” (PANACEA BIOTEC LIMITED, priority 2008, published 2011).

Target: GLP-1 receptor
Assay: cell-based or functional assay

EC50, Receptor Functional assay (intracellular cAMP in CHO/GLP-1R cells): 0.0503 nM
Substance: GLP-1(7-37) parent (from UniProt P01275 98-128) (peptide)
